Consider 4 molecules from patent US5972902, “DNA encoding human IL-6 receptor antagonist and protein encoded thereby” (dated 1999).

Assay [1] concerns the target T1, hIL-6 receptor (human, UniProt P08887).
In assay [2] the target is T1, hIL-6 receptor. The assay is described as follows: receptor binding assay by the method of Savino et al. 1994. The method, then: The proteins IL-6 DFRD/D160R (coded by the cDNA described in SEQ ID NO:4), IL-6 DFRD/W157R/D160R (coded by the cDNA described in SEQ ID NO:5) and IL-6 DFRD/T162D (coded by the cDNA described in SEQ ID NO:6) were produced according to the state of the art, as described (Arcone, R., Pucci, P., Zappacosta, F., Fontaine, V., Malorni, A., Marino, G., and Ciliberto, G., Eur. J. Biochem. 198, 541–547, 1991). The ability of the mutants to bind to the hIL-6 receptor was measured using state of the art methods, as described (Savino, R., Lahm, A., Salvati, A. L., Ciapponi, L., Sporeno, E., Altamura, S., Paonessa, G., Toniatti, C., Ciliberto, G., EMBO J. 13, 1357–1367, 1994). Table 1 below gives the receptor binding levels for wild type IL-6 and for the mutant forms obtained as described in example 1.

Another assay concerns the target gp130 (Homo sapiens (Human), UniProt P40189). The assay can be described thus: cell-based or functional assay.

Substitutions are numbered along the chain they refer to. Names and notes keep the numbering of the source.

For the molecule Sant7 (ligand), in the assay with hIL-6 receptor [1], the 90% inhibition of interleukin-6 activity on hepatoma cells Hep3B (4 ng/ml wild type IL-6) came to 30 ng/mL; the 90% inhibition of interleukin-6 activity on myeloma cells XG-1 (IL-6-dependent growth, 0.1 ng/ml wild type IL-6) worked out at 35 ng/mL; the 90% inhibition of interleukin-6 activity on myeloma cells XG-2 (IL-6-dependent growth, 0.5 ng/ml wild type IL-6) came out at 950 ng/mL.

B1: IL-6 DFRD/D160R (ligand)
chain: PVPPGEDSKDVAAPHRQPLTSSERIDKQIRDILDFISALRKETCNKSNMCESSKEALAENNLNLPKMAEKDGCFQSGFNEETCLVKIITGLLEFEVYLEYLQNRFESSEEQARAVQMRTKDLIQFLQKKAKNLDAITTPDPTTNASLLTKLQAQNQWLQRMTTHLILRSFKEFLQSSLRALRQM
On to B1, for which, in the assay with hIL-6 receptor [2], the “ability to bind to the IL-6 receptor (% of wild type)” value (“ability to bind … (% of wild type)” below) worked out at 137%.

B2: IL-6 DFRD/T162D (ligand)
chain: B1 chain with R160D, T162D
B2: the “ability to bind … (% of wild type)” value with hIL-6 receptor [2] was determined as 39%. Besides, in the assay with gp130, the “Biological activity on human hepatoma cells” value is 0%.

B3: IL-6 DFRD/W157R/D160R (ligand)
chain: B1 chain with W157R
B3: in the assay with hIL-6 receptor [2], the “ability to bind … (% of wild type)” value worked out at 130%. In addition, the “Biological activity on human hepatoma cells” value with gp130 was determined as 0%.
